Ends that are not written are not given here. Peptide text beside a SMILES is read from it.
Tests used:
HIV-1 [1] = settings: summary of Experiments 1-6
Procedure: Next, the ability of peptide agents to inhibit viral infection was evaluated. Accordingly, the peptide agents listed in Table 1 were used in several viral (e.g., HIV-1, HIV-2, and SIV) infection assays. […] Once inhibitory tripeptides were identified, more specific assays were conducted to determine the effect of varying concentrations of the selected tripeptides and combination treatments (e.g., the use of more than one modified tripeptide in combination).

HIV-1 [2] = settings: 100 μM; Experiment 6
Procedure: The HUT cells were resuspended in 1 ml of RPMI 1640 medium supplemented with 10% (v/v) heat-inactivated fetal bovine serum (FBS, GIBCO), penicillin (100 u/ml), streptomycin (100 u/ml) and Polybrene (Sigma, 2 μg/ml) with or without the presence of the different small peptides (100 μM) mentioned above. Thereafter, the HIV-1 virus was added at 25 TCID50 in a volume of 20 μl. Cells were incubated with the virus at 37° C. for one hour and, subsequently, the cells were pelleted at 170× g for seven minutes. The cells were then washed three times in RPMI medium without peptides at room temperature by cell sedimentation at 170× g for seven minutes, as above. After the final wash, the cells were resuspended in RPMI culture medium in 24-well plate (Costar corporation) and were kept at 37° C. in 5% CO2 with humidity. Culture supernatants were collected when medium was changed at day 4, 7, and 11 post infection and viral p24 production was monitored by using an HIV-1 p24 ELISA kit (Abbott Laboratories, North Chicago, USA).

HIV-1 SF-2 virus = assay: electron microscopy of HIV-1 particles from infected HUT78 cells; assay type: cell-based; settings: 0.5 μM control sample; cells fixed day 14
Procedure: Evidence that peptide agents inhibit or prevent viral capsid protein polymerization and, thus, proper nucleocapsid assembly was obtained by performing electron microscopy on HIV-1 particles that were contacted with a modified small peptide. In this set of experiments, HUT78 cells were infected with HIV-1 SF-2 virus at 300TCID50 for 1 hr at 37° C. Subsequently, the infected cells were washed and pelleted 3 times. […] GPG-NH2 was then added into the cell cultures 3, 5 or 7 days post infection at concentration of 1 μm or 10 μM. A control sample was administered 0.5 μM Ritonavir (a protease inhibitor). The cells were cultured until day 14, at which point, the cells were fixed in 2.5% glutaraldehyde by conventional means. The fixed cells were then post-fixed in 1% OSO4 and were dehydrated, embedded with epoxy resins, and the blocks were allowed to polymerize. Epon sections of virus infected cells were made approximately 60-80 nm thin in order to accommodate the width of the nucleocapsid. The sections were mounted to grids stained with 1.0% uranyl acetate and were analyzed in a Zeiss CEM 902 microscope at an accelerating voltage of 80 kV. The microscope was equipped with a spectrometer to improve image quality and a liquid nitrogen cooling trap was used to reduce beam damage. The grids having sections of control and GPG-NH2 incubated cells were examined in several blind studies.
(See FIG. 1). […]

[3] = biological target: major capsid protein (p24) of HIV-1 (HIV-1) (UniProt P04591)
[4] = biological target: viral capsid protein (p24) of SIV (SIV)
[5] = biological target: viral capsid protein (p24) of HIV-2 (HIV-2)
[6] = biological target: T1, major capsid protein (p24) of HIV-1 (HIV-1, UniProt P04591); assay: cell-based or functional assay
[7] = biological target: T1, major capsid protein (p24) of HIV-1; assay: cell-based or functional assay; remark: listed apart in the source

`NCCCC[C@H](N)C(=O)N[C@@H](CCC(N)=O)C(=O)NCC(N)=O` [KQG-NH2, lysyl-glutaminyl-glycine amide] (H-Lys-Gln-Gly-NH2) was tested, and the “effect on HIV-1 infection, in words” value (HIV-1 [1]) was “inhibited and/or prevented HIV-1 infection” and the “reduction of virus, capsid protein p24 in the supernatant” value (“reduction of virus, capsid protein p24” below) (HIV-1 [2]) was ~100%.

In the case of `CC(C)C[C@H](NC(=O)[C@@H](N)CO)C(=O)NCC(N)=O` [SLG-NH2, seryl-leucyl-glycine amide] (H-Ser-Leu-Gly-NH2), the “effect on HIV-1 infection, in words” value (HIV-1 [1]) is reported as “inhibited and/or prevented HIV-1 infection” and the “reduction of virus, capsid protein p24” value (HIV-1 [2]) is reported as ~100%.

With `CC(C)c1nc(CN(C)C(=O)N[C@H](C(=O)N[C@@H](Cc2ccccc2)C[C@H](O)[C@H](Cc2ccccc2)NC(=O)OCc2cncs2)C(C)C)cs1` [Ritonavir, reference compound] the “capsid/nucleocapsid morphology of HIV-1 particles” value (HIV-1 SF-2 virus) was “malformed structures that did not have a discernable nucleocapsid”.

For `CC(C)[C@H](NC(=O)CN)C(=O)NCC(N)=O` [GVG-NH2, glycyl-valyl-glycine amide] (H-Gly-Val-Gly-NH2), the “effect on HIV-1 infection, in words” value (HIV-1 [1]) was “inhibited and/or prevented HIV-1 infection” and the “inhibiting or preventing HIV-1 infection, in words” value (HIV-1 [2]) was “less effective”.

For GPG-NH2 + CQG-NH2 (pool or library), the reverse transcriptase (RT) activity in the supernatants, Day 10 RT (OD) [3] was 0.397 OD, the reverse transcriptase (RT) activity in the supernatants, Day 10 RT (OD) [4] was 0.91 OD and the reverse transcriptase (RT) activity in the supernatants, Day 10 RT (OD) [5] was 1.17 OD.

For `N=C(N)NCCC[C@H](N)C(=O)N[C@@H](CCC(N)=O)C(=O)NCC(N)=O` [RQG-NH2, arginyl-glutaminyl-glycine amide] (H-Arg-Gln-Gly-NH2), the “effect on HIV-1 infection, in words” value (HIV-1 [1]) was “inhibited and/or prevented HIV-1 infection” and the “reduction of virus, capsid protein p24” value (HIV-1 [2]) was ~100%.

With GKG-NH2 + CQG-NH2 (pool or library) the reverse transcriptase (RT) activity in the supernatants, Day 10 RT (OD) [3] was 1.89 OD, the reverse transcriptase (RT) activity in the supernatants, Day 10 RT (OD) [4] was 2.89 OD and the reverse transcriptase (RT) activity in the supernatants, Day 10 RT (OD) [5] was 2.8 OD.

Molecule GPG-NH2 + GKG-NH2 (pool or library) has a reverse transcriptase (RT) activity in the supernatants, Day 10 RT (OD) [3] of 0.164 OD, a reverse transcriptase (RT) activity in the supernatants, Day 10 RT (OD) [4] of 0.309 OD and a reverse transcriptase (RT) activity in the supernatants, Day 10 RT (OD) [5] of 1.11 OD.

With `C[C@@H](O)[C@H](NC(=O)[C@@H]1CCCN1C(=O)[C@@H](N)CO)C(N)=O` [SPT-NH2, seryl-prolyl-threonine amide] (H-Ser-Pro-Thr-NH2) the “effect on HIV-1 infection, in words” value (HIV-1 [1]) was “inhibited and/or prevented HIV-1 infection” and the “inhibiting or preventing HIV-1 infection, in words” value (HIV-1 [2]) was “less effective”.

`C[C@H](N)C(=O)N[C@@H](CO)C(=O)NCC(N)=O` [ASG-NH2, alanyl-seryl-glycine amide] (H-Ala-Ser-Gly-NH2) was tested, and the “effect on HIV-1 infection, in words” value (HIV-1 [1]) was “inhibited and/or prevented HIV-1 infection” and the “inhibiting or preventing HIV-1 infection, in words” value (HIV-1 [2]) was “less effective”.

For `CC(C)[C@H](N)C(=O)NCC(=O)NCC(N)=O` [VGG-NH2, valyl-glycyl-glycine amide] (H-Val-Gly-Gly-NH2), the “effect on HIV-1 infection, in words” value (HIV-1 [1]) was “inhibited and/or prevented HIV-1 infection” and the “inhibiting or preventing HIV-1 infection, in words” value (HIV-1 [2]) was “less effective”.

In the case of `CC(C)C[C@H](NC(=O)[C@H](C)N)C(=O)NCC(N)=O` [ALG-NH2, alanyl-leucyl-glycine amide] (H-Ala-Leu-Gly-NH2), the “effect on HIV-1 infection, in words” value (HIV-1 [1]) is reported as “inhibited and/or prevented HIV-1 infection” and the “reduction of virus, capsid protein p24” value (HIV-1 [2]) is reported as ~100%.

In the case of Ala-Leu-Gly-NH2 [Ala-Leu-Gly-NH2], the “p24 production of infected HUT78 cells (HIV-1 p24 ELISA), Day 7 HIV-1, reduction (%), peptide at 100 µM” value [6] is reported as 100%.

With Lys-Ala-Leu-NH2 [KAL-NH2] the “reverse transcriptase (RT) activity in the supernatants, Day 10 RT (OD)” value (“reverse transcriptase (RT) activity” below) [7] was 2 OD.

Gly-Val-Gly-NH2 [Gly-Val-Gly-NH2] was tested, and the “p24 production of infected HUT78 cells (HIV-1 p24 ELISA), Day 7 HIV-1, reduction (%), peptide at 100 µM” value [6] was 25%.

In the case of Ala-Arg-Val-NH2 [ARV-NH2], the “reverse transcriptase (RT) activity” value [7] is reported as 1.53 OD.

With Cys-Gln-Gly-NH2 [Cys-Gln-Gly-NH2] the “reverse transcriptase (RT) activity” value [7] was 0.108 OD.

In the case of Arg-Gln-Gly-NH2 [Arg-Gln-Gly-NH2], the “p24 production of infected HUT78 cells (HIV-1 p24 ELISA), Day 7 HIV-1, reduction (%), peptide at 100 µM” value [6] is reported as 99%.

Lys-Ala-Arg-NH2 [KAR-NH2] was tested, and the “reverse transcriptase (RT) activity” value [7] was 2.78 OD.

With Ala-Ser-Gly-NH2 [Ala-Ser-Gly-NH2] the “p24 production of infected HUT78 cells (HIV-1 p24 ELISA), Day 7 HIV-1, reduction (%), peptide at 100 µM” value [6] was 25%.

Val-Gly-Gly-NH2 [Val-Gly-Gly-NH2] was tested, and the “p24 production of infected HUT78 cells (HIV-1 p24 ELISA), Day 7 HIV-1, reduction (%), peptide at 100 µM” value [6] was 50%.

With Gly-Ala-Thr-NH2 [GAT-NH2] the “reverse transcriptase (RT) activity” value [7] was 1.56 OD.

His-Lys-Ala-NH2 [HKA-NH2] was tested, and the “reverse transcriptase (RT) activity” value [7] was 2.55 OD.

For Ala-Cys-Gln-NH2 [ACQ-NH2], the “reverse transcriptase (RT) activity” value [7] was 0.904 OD.

Lys-Gln-Gly-NH2 [Lys-Gln-Gly-NH2] was tested, and the “p24 production of infected HUT78 cells (HIV-1 p24 ELISA), Day 7 HIV-1, reduction (%), peptide at 100 µM” value [6] was 99%.

With Ser-Pro-Thr-NH2 [Ser-Pro-Thr-NH2] the “p24 production of infected HUT78 cells (HIV-1 p24 ELISA), Day 7 HIV-1, reduction (%), peptide at 100 µM” value [6] was 25%.

In the case of Ser-Leu-Gly-NH2 [Ser-Leu-Gly-NH2], the “p24 production of infected HUT78 cells (HIV-1 p24 ELISA), Day 7 HIV-1, reduction (%), peptide at 100 µM” value [6] is reported as 99%.

— patent US20030050242A1, “Protein polymerization inhibitors and methods of use” (priority 1999, published 2003)
